System: peripheral blood mononuclear cells (PBMCs)
Assay: ELISPOT screening of healthy donor samples with 23 commercially available peptide pools
Format: cell-based, human
Settings: healthy donors, responsive donors/donors tested in brackets

B1: EBNA-3a Protein: Epstein barr nuclear antigen-3A as protein (number of peptides N/A) (protein, UniProt P12977 1-944, looked up)
Epstein-Barr nuclear antigen 3: MDKDRPGPPALDDNMEEEVPSTSVVQEQVSAGDWENVLIELSDSSSEKEAEDAHLEPAQKGTKRKRVDHDAGGSAPARPMLPPQPDLPGREAILRRFPLDLRTLLQAIGAAATRIDTRAIDQFFGSQISNTEMYIMYAMAIRQAIRDRRRNPASRRDQAKWRLQTLAAGWPMGYQAYSSWMYSYTDHQTTPTFVHLQATLGCTGGRRCHVTFSAGTFKLPRCTPGDRQWLYVQSSVGNIVQSCNPRYSIFFDYMAIHRSLTKIWEEVLTPDQRVSFMEFLGFLQRTDLSYIKSFVSDALGTTSIQTPWIDDNPSTETAQAWNAGFLRGRAYGIDLLRTEGEHVEGATGETREESEDTESDGDDEDLPCIVSRGGPKVKRPPIFIRRLHRLLLMRAGKRTEQGKEVLEKARGSTYGTPRPPVPKPRPEVPQSDETATSHGSAQVPEPPTIHLAAQGMAYPLHEQHGMAPCPVAQAPPTPLPPVSPGDQLPGVFSDGRVACAPVPAPAGPIVRPWEPSLTQAAGQAFAPVRPQHMPVEPVPVPTVALERPVYPKPVRPAPPKIAMQGPGETSGIRRARERWRPAPWTPNPPRSPSQMSVRDRLARLRAEAQVKQASVEVQPPQLTQVSPQQPMEGPLVPEQQMFPGAPFSQVADVVRAPGVPAMQPQYFDLPLIQPISQGAPVAPLRASMGPVPPVPATQPQYFDIPLTEPINQGASAAHFLPQQPMEGPLVPEQWMFPGAALSQSVRPGVAQSQYFDLPLTQPINHGAPAAHFLHQPPMEGPWVPEQWMFQGAPPSQGTDVVQHQLDALGYTLHGLNHPGVPVSPAVNQYHLSQAAFGLPIDEDESGEGSDTSEPCEALDLSIHGRPCPQAPEWPVQEEGGQDATEVLDLSIHGRPRPRTPEWPVQGEGGQNVTGPETRRVVVSAVVHMCQDDEFPDLQDPPDEA
B1 was tested, and the “Percentage Responsive (10 spot arbitrary cut off)” value was 13% (19/137.

Reference: patent US11112401B2, “Method for determining the cell mediated immune competence of a subject” (Oxford Immunotec Limited, priority 2016, dated 2021)
